Laboratory results: patent US20050186662A1

Target: neonatal Fc receptor (FcRn) of the neonatal rat small intestine (rat) (UniProt P13599)
Assay: cell-based or functional assay

Chain of UniProt P13599 (P13599 23-366, form in doubt): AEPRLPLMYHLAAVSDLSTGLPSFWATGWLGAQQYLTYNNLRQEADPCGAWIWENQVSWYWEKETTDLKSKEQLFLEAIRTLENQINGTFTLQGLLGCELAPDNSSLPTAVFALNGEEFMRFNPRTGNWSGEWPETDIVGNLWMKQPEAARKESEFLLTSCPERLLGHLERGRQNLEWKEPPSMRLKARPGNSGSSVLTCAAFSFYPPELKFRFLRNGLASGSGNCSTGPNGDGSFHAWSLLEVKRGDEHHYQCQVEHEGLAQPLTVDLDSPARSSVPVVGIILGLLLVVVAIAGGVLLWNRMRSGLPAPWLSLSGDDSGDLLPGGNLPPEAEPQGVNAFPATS

| Substance | reduction in transport (oral delivery of 125I-labelled protein into neonatal rat serum) in the presence of 300-fold excess unlabeled human IgG1, by phosphorimage analysis |
| --- | --- |
| heterodimer FSH-Fc (Fc fusion) | 53% |
| single-chain FSH-Fc (from UniProt P01225 19-129; P01215 25-116) (Fc fusion) | 83% |
